Data as given in article PMC3381998.

What was measured:
[1] = target: SEPT7 (UniProt Q16181); experiment: co-IP
[2] = target: SEPT6 (UniProt Q14141); experiment: co-IP
SEPT6, sequence (Q14141 whole entry): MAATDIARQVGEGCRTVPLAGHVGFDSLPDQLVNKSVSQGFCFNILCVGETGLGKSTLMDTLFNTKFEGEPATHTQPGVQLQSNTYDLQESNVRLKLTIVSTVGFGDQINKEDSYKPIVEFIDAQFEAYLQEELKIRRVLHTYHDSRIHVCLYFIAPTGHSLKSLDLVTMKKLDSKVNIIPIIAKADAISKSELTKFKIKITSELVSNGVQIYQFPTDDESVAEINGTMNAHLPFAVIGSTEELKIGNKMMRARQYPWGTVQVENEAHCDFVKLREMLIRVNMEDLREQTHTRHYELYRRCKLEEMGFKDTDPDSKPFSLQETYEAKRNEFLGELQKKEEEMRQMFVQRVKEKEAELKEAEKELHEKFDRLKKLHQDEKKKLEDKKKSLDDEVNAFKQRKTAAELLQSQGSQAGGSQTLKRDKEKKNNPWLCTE

SEPT7, sequence (Q16181 whole entry): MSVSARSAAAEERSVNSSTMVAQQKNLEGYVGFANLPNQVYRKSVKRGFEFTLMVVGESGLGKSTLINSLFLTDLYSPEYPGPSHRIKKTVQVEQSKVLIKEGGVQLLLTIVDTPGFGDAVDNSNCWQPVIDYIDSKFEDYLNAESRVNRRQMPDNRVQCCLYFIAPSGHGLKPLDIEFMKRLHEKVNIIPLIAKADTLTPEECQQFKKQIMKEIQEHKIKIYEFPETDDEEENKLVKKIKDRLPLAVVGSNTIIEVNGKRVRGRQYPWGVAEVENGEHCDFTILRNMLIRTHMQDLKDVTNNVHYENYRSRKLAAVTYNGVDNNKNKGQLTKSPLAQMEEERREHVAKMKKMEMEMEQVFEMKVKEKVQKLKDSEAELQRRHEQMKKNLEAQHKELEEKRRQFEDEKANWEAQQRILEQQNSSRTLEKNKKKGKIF

percent of total SEPT6 precipitated with SEPT7 [1] [%] | percent of SEPT7 depleted on immunodepletion of SEPT6 [2] [%] | percent of SEPT7 that interacts with SEPT6 [2] [%] | Substance
24 | – | – | SEPT6 (from UniProt Q14141 1-434) (natural protein)
– | 30 | 43 | SEPT7 (from UniProt Q16181 1-437) (natural protein)
